Patent US20110091463A1 (AbbVie / Abbott, published 2011)

Columns and labels:
IL-6R on TF-1 cells = target: T1, IL-6R on TF-1 cells (UniProt P08887 20-468, limits assumed); assay: cell-based or functional assay
T1 sequence (looked up): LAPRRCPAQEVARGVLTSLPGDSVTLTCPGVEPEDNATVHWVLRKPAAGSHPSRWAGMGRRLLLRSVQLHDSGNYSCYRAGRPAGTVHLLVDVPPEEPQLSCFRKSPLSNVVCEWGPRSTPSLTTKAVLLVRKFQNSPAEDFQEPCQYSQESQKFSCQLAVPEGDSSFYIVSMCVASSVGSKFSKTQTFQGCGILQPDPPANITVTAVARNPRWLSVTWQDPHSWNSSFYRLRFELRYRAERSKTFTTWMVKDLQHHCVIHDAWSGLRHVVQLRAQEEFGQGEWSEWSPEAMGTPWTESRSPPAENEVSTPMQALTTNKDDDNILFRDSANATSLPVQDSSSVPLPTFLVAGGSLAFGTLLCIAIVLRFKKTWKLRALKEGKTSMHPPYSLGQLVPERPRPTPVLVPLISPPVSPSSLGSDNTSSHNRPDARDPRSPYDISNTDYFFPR

[1] = target: T2, Recombinant Human IL-6 sR (human, UniProt P08887 20-358, limits assumed); assay: SPR (Biacore), antibody captured on chip, antigen injected, 25 C
T2 construct: Bought soluble receptor ('sR'); also called IL-6R
T2 sequence (looked up): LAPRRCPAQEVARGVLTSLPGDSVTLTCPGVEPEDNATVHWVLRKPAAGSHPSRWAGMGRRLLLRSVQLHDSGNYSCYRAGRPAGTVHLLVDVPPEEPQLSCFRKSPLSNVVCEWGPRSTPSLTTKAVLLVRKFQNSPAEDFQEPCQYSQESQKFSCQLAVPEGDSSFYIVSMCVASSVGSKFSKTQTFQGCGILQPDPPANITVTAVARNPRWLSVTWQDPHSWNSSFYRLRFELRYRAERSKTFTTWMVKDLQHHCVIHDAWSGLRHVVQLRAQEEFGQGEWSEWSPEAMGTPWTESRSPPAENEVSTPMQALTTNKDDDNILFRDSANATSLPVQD
Description: (§1) The BIACORE assay (Biacore, Inc, Piscataway, N.J.) determines the affinity of antibodies or DVD-Ig with kinetic measurements of on-rate and off-rate constants. Binding of antibodies or DVD-Ig to a target antigen (for example, a purified recombinant target antigen) is determined by surface plasmon resonance-based measurements with a Biacore® 1000 or 3000 instrument (Biacore® AB, Uppsala, Sweden) using running HBS-EP (10 mM HEPES [pH 7.4], 150 mM NaCl, 3 mM EDTA, and 0.005% surfactant P20) at 25° C. All chemicals are obtained from Biacore® AB (Uppsala, Sweden) or otherwise from a different source as described in the text. For example, approximately 5000 RU of goat anti-mouse IgG, (Fcγ), fragment specific polyclonal antibody (Pierce Biotechnology Inc, Rockford, Ill.) diluted in 10 mM sodium acetate (pH 4.5) is directly immobilized across a CM5 research grade biosensor chip using a standard amine coupling kit according to manufacturer's instructions and procedures at 25 μg/ml. Unreacted moieties on the biosensor surface are blocked with ethanolamine. Modified carboxymethyl dextran surface in flowcell 2 and 4 is used as a reaction surface. Unmodified carboxymethyl dextran without goat anti-mouse IgG in flow cell 1 and 3 is used as the reference surface. For kinetic analysis, rate equations derived from the 1:1 Langmuir binding model are fitted simultaneously to association and dissociation phases of all eight injections (using global fit analysis) with the use of Biaevaluation 4.0.1 software. Purified antibodies or DVD-Ig are diluted in HEPES-buffered saline for capture across goat anti-mouse IgG specific reaction surfaces. Antibodies or DVD-Ig to be captured as a ligand (25 μg/ml) are injected over reaction matrices at a flow rate of 5 μl/min. The association and dissociation rate constants, kₒₙ (M⁻¹ s⁻¹) and koff (s⁻¹) are determined under a continuous flow rate of 25 μl/min. Rate constants are derived by making kinetic binding measurements at different antigen concentrations ranging from 10-200 nM. The equilibrium dissociation constant (M) of the reaction between antibodies or DVD-Igs and the target antigen is then calculated from the kinetic rate constants by the following formula: KD=koff/kₒₙ. Binding is recorded as a function of time and kinetic rate constants are calculated.

Recombinant Human β-NGF = target: T3, Recombinant Human β-NGF (human, UniProt P01138 122-241); assay: as above
T3 construct: Bought reagent
Description: as §1

[2] = target: NGF (Neuroscreen-1 bioassay); assay: cell-based or functional assay
IL-1β (MRC5 bioassay) = assay: cell-based or functional assay
Recombinant Human IL-1β = target: T4, Recombinant Human IL-1β (human, UniProt P01584 117-269); assay: SPR (Biacore), DVD-Ig captured on chip, antigen injected, 25 C
T4 construct: Bought reagent; also called IL-1b; Il-1b
Description: as §1, with “Antibodies or DVD-Ig to be captured as a ligand (25 μg/ml) are injected over reaction matrices at a flow rate of 5 μl/min.” left out, “Rate constants are derived by making kinetic binding measurements at different antigen concentrations ranging from 10-200 nM.” left out

T3 sequence (P01138 122-241 limits assumed): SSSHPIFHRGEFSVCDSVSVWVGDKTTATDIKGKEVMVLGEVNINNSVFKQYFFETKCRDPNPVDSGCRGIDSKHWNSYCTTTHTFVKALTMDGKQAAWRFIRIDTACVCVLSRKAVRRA
NGF (Neuroscreen-1 bioassay), sequence (P01138 122-241): as the sequence (P01138 122-241 limits assumed) above
IL-1β (MRC5 bioassay), sequence (P01584 117-269): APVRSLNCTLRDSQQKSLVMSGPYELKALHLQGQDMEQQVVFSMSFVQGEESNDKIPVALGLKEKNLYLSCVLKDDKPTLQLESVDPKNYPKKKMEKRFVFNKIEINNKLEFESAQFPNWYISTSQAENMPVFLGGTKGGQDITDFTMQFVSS

B1: AB054 (antibody, V domains shown)
VH: EVQLQESGPGLVRPSQTLSLTCTVSGYSITSDHAWSWVRQPPGRGLEWIGYISYSGITTYNPSLKSRVTMLRDTSKNQFSLRLSSVTAADTAVYYCARSLARTTAMDYWGQGSLVTVSS
VL: DIQMTQSPSSLSASVGDRVTITCRASQDISSYLNWYQQKPGKAPKLLIYYTSRLHSGVPSRFSGSGSGTDFTFTISSLQPEDIATYYCQQGNTLPYTFGQGTKVEIKR
notes: Parent antibody; also called IL-6R parent antibody; AB054VH
- IL-6 Inhibition Assay EC50 µM (IL-6 induced pSTAT3 in TF-1 cells) (IL-6R on TF-1 cells): 0.07 µM
- Kd [1]: 0.614 nM
- koff [1]: 0.000206 s⁻¹
- kon [1]: 336000 M⁻¹ s⁻¹

B2: AB020 (antibody, V domains shown)
VH: QVQLQESGPGLVKPSETLSLTCTVSGFSLIGYDLNWIRQPPGKGLEWIGIIWGDGTTDYNSAVKSRVTISKDTSKNQFSLKLSSVTAADTAVYYCARGGYWYATSYYFDYWGQGTLVTVSS
VL: DIQMTQSPSSLSASVGDRVTITCRASQSISNNLNWYQQKPGKAPKLLIYYTSRFHSGVPSRFSGSGSGTDFTFTISSLQPEDIATYYCQQEHTLPYTFGQGTKLEIKR
notes: Parent antibody; also called AB020VH
- Kd (Recombinant Human β-NGF): 0.00673 nM
- koff (Recombinant Human β-NGF): 4.08e-06 s⁻¹
- kon (Recombinant Human β-NGF): 606000 M⁻¹ s⁻¹

B3: DVD934 (bispecific antibody, human IgG1, kappa)
heavy: not shown
light: DVLMTQTPLSLPVTPGEPASISCTSSQNIVHSNGNTYLEWYLQKPGQSPQLLIYKVSNRFSGVPDRFSGSGSGTDFTLKISRVEAEDVGVYYCFQVSHVPYTFGGGTKVEIKRTVAAPDIQMTQSPSSLSASVGDRVTITCRASEDIYNALAWYQQKPGKAPKLLIYNTDTLHTGVPSRFSGSGSGTDYTLTISSLQPEDFATYFCQHYFHYPRTFGQGTKVEIKRTVAAPSVFIFPPSDEQLKSGTASVVCLLNNFYPREAKVQWKVDNALQSGNSQESVTEQDSKDSTYSLSSTLTLSKADYEKHKVYACEVTHQGLSSPVTKSFNRGEC
- C-Terminal VD NGF Inhibition Assay EC50 pM (ERK1/2 phosphorylation in Neuroscreen-1 cells) [2]: > 5000 pM

B4: DVD933 (bispecific antibody, human IgG1, kappa)
heavy: not shown
light: DIQMTQSPSSLSASVGDRVTITCRASEDIYNALAWYQQKPGKAPKLLIYNTDTLHTGVPSRFSGSGSGTDYTLTISSLQPEDFATYFCQHYFHYPRTFGQGTKVEIKRTVAAPDVLMTQTPLSLPVTPGEPASISCTSSQNIVHSNGNTYLEWYLQKPGQSPQLLIYKVSNRFSGVPDRFSGSGSGTDFTLKISRVEAEDVGVYYCFQVSHVPYTFGGGTKVEIKRTVAAPSVFIFPPSDEQLKSGTASVVCLLNNFYPREAKVQWKVDNALQSGNSQESVTEQDSKDSTYSLSSTLTLSKADYEKHKVYACEVTHQGLSSPVTKSFNRGEC
- N-Terminal VD NGF Inhibition Assay EC50 pM (ERK1/2 phosphorylation in Neuroscreen-1 cells) [2]: 49 pM

B5: DVD950 (bispecific antibody, human IgG1, kappa)
heavy: not shown
light: DIQMTQSPSSLSASVGDRVTITCRASGNIHNYLTWYQQTPGKAPKLLIYNAKTLADGVPSRFSGSGSGTDYTFTISSLQPEDIATYYCQHFWSIPYTFGQGTKLQITTVAAPDIQMTQSPSSLSASVGDRVTITCRASEDIYNALAWYQQKPGKAPKLLIYNTDTLHTGVPSRFSGSGSGTDYTLTISSLQPEDFATYFCQHYFHYPRTFGQGTKVEIKRTVAAPSVFIFPPSDEQLKSGTASVVCLLNNFYPREAKVQWKVDNALQSGNSQESVTEQDSKDSTYSLSSTLTLSKADYEKHKVYACEVTHQGLSSPVTKSFNRGEC
notes: DVD-Ig; also called DVD950H; DVD950L
- C-Terminal VD IL-1β Neutralization Assay EC50 nM (IL-8 release by MRC5 cells) (IL-1β (MRC5 bioassay)): 26 nM
- C-Terminal VD NGF Inhibition Assay EC50 pM (ERK1/2 phosphorylation in Neuroscreen-1 cells) [2]: 316 pM
- Kd (Recombinant Human IL-1β): 0.495 nM
- koff (Recombinant Human IL-1β): 0.000487 s⁻¹
- kon (Recombinant Human IL-1β): 983000 M⁻¹ s⁻¹

B6: DVD949 (bispecific antibody, human IgG1, kappa)
heavy: not shown
light: DIQMTQSPSSLSASVGDRVTITCRASEDIYNALAWYQQKPGKAPKLLIYNTDTLHTGVPSRFSGSGSGTDYTLTISSLQPEDFATYFCQHYFHYPRTFGQGTKVEIKRTVAAPDIQMTQSPSSLSASVGDRVTITCRASGNIHNYLTWYQQTPGKAPKLLIYNAKTLADGVPSRFSGSGSGTDYTFTISSLQPEDIATYYCQHFWSIPYTFGQGTKLQITTVAAPSVFIFPPSDEQLKSGTASVVCLLNNFYPREAKVQWKVDNALQSGNSQESVTEQDSKDSTYSLSSTLTLSKADYEKHKVYACEVTHQGLSSPVTKSFNRGEC
- N-Terminal VD IL-1β Neutralization Assay EC50 nM (IL-8 release by MRC5 cells) (IL-1β (MRC5 bioassay)): 0.148 nM
- N-Terminal VD NGF Inhibition Assay EC50 pM (ERK1/2 phosphorylation in Neuroscreen-1 cells) [2]: 55 pM

B7: DVD1207 (bispecific antibody, human IgG1, kappa)
heavy: not shown
light: DIQMTQSPSSLSASVGDRVTITCRASQDISSYLNWYQQKPGKAPKLLIYYTSRLHSGVPSRFSGSGSGTDFTFTISSLQPEDIATYYCQQGNTLPYTFGQGTKVEIKRTVAAPDIQMTQSPSSLSASVGDRVTITCRASEDIYNALAWYQQKPGKAPKLLIYNTDTLHTGVPSRFSGSGSGTDYTLTISSLQPEDFATYFCQHYFHYPRTFGQGTKVEIKRTVAAPSVFIFPPSDEQLKSGTASVVCLLNNFYPREAKVQWKVDNALQSGNSQESVTEQDSKDSTYSLSSTLTLSKADYEKHKVYACEVTHQGLSSPVTKSFNRGEC
- N-Terminal VD IL-6 Inhibition Assay EC50 µM (IL-6 induced pSTAT3 in TF-1 cells) (IL-6R on TF-1 cells): 0.089 µM
- C-Terminal VD NGF Inhibition Assay EC50 pM (ERK1/2 phosphorylation in Neuroscreen-1 cells) [2]: > 5000 pM
